For orientation: Kd means a measure of binding affinity in units of concentration.

For the test, the target named is T1, Recombinant human IGF-II R (CI-MPR) (Homo sapiens, UniProt P11717).
T1 construct: purchased R&D Systems
The test is described as follows: SPR binding to immobilized CI-MPR. A general note: SPR reads the build-up and loss of mass on a sensor chip optically.

T1 sequence (P11717 41-2491): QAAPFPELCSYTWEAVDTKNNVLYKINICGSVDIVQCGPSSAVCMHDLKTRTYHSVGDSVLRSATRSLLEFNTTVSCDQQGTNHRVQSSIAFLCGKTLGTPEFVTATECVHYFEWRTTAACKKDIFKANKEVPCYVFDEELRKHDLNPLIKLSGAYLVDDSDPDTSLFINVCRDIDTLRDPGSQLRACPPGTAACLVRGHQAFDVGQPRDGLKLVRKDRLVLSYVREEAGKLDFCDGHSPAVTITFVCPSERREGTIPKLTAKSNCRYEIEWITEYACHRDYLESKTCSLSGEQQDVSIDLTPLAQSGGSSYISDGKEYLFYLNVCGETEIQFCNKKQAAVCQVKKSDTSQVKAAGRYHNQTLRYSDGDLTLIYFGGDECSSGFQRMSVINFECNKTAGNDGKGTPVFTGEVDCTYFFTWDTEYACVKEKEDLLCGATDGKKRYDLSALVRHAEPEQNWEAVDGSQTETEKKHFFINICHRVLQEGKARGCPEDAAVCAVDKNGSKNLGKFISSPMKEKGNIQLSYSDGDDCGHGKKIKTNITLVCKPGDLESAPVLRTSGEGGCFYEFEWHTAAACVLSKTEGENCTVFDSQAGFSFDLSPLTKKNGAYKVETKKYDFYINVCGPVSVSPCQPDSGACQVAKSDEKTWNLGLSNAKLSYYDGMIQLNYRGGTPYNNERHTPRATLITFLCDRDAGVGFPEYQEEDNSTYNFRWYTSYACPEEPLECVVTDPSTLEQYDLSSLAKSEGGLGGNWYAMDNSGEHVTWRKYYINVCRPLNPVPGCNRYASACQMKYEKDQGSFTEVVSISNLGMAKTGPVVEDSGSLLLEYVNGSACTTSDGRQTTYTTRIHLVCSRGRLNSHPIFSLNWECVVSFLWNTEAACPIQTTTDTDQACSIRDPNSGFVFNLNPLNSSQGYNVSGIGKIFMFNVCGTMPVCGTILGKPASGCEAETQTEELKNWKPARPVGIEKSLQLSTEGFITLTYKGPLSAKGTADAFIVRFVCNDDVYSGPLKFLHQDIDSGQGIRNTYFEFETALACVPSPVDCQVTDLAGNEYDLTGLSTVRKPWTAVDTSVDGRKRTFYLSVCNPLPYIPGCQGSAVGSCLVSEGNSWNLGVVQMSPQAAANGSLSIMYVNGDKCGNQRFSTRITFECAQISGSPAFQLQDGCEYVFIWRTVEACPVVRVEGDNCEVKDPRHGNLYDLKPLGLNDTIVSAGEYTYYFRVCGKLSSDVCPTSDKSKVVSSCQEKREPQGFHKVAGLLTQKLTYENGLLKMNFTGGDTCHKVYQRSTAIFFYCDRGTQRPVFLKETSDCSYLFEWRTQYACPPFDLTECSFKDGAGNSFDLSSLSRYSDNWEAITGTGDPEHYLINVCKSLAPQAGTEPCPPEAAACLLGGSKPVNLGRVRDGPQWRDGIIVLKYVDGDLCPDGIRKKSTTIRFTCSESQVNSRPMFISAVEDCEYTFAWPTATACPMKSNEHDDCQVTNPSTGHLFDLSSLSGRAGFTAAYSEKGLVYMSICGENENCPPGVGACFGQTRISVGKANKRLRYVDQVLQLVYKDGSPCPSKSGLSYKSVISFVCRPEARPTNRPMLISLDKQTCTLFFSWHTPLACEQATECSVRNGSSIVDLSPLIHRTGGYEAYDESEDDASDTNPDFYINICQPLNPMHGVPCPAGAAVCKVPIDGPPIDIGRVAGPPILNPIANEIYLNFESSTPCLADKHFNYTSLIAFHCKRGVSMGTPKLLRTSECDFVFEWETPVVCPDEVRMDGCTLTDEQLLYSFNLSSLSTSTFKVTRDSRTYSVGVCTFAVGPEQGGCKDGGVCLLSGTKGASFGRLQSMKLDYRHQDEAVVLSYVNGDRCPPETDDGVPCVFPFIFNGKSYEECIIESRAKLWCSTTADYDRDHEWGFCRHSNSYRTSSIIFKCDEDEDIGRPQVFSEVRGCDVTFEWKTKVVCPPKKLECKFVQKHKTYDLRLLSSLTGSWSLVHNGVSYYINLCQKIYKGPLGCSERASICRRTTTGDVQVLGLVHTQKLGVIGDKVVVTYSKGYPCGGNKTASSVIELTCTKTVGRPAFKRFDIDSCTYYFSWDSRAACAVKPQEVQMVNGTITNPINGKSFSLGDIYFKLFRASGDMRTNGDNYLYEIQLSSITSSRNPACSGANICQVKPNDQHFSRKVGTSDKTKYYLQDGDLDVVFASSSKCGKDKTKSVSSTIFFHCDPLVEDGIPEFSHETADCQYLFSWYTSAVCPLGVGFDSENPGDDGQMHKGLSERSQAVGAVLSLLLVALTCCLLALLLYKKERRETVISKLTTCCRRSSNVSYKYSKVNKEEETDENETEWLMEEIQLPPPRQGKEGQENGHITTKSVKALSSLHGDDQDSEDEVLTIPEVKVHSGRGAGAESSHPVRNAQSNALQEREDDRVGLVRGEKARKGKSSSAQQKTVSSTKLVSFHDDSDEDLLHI
Method: Surface Plasmon Resonance (SPR) Measurements. SPR measurements were performed on a Biacore T200 instrument (GE Healthcare). Recombinant human IGF-II R (CI-MPR) was purchased
from R&D Systems. Approximately 7000 resonance units (RU) of CI-MPR was immobilized on a
CM5 sensor chip in a sodium acetate buffer (25 μg/mL, pH 4.0) at 25 °C, using the amine coupling kit
provided by the manufacturer. Mannose 6-phosphate containing glycopeptides or glycoproteins were
determined at 25 °C under a flow rate of 10 μL/min. HBS-P+ buffer (10 mM HEPES, 150 mM NaCl,
0.05% surfactant P20, pH 7.4) was used as sample buffer and running buffer. Association was
measured for 3 min and dissociation for 10 min at same flow rate (10 μL/min). The surface
and glycoprotein analytes flowed over an immobilized chip with 2-fold serial dilution of the highest
concentration of 4 μM (for glycopeptides) or 1 μM (for RNase B) or 250 nM (for rhGAA).
analyses were performed by global fitting of the binding data to a 1:1 Langmuir binding model using

B1: 68: M6P-containing RNase B, remodeled with tetrasaccharide oxazoline 8 by Endo-A (protein, UniProt P61823 27-150, looked up)
Ribonuclease pancreatic: KETAAAKFERQHMDSSTSAASSSNYCNQMMKSRNLTKDRCKPVNTFVHESLADVQAVCSQKNVACKNGQTNCYQSYSTMSITDCRETGSSKYPNCAYKTTQANKHIIVACEGNPYVPVHFDASV
modifications: M6P-tetrasaccharide glycan remodeled by Endo-A
notes: M6P-containing RNase B, remodeled with tetrasaccharide oxazoline 8 by Endo-A
As to B1, the Kd reads like this: (SPR, immobilized CI-MPR, 25 °C, average of three independent experiments) 15.8 nM; (representative SPR sensorgram, single experiment) 15.5 nM. Further, the Ka (representative SPR sensorgram, 1:1 Langmuir fit, association constant) was determined as 6.877E+4.

Values taken from paper PMC8480326, “Chemoenzymatic glycan-selective remodeling of a therapeutic lysosomal enzyme with high-affinity M6P-glycan ligands. Enzyme substrate specificity is the name of the game” (Chemical Science, 2021).
